Data: FireProtDB (doi:10.1021/bi00021a022)

Details: Saccharomyces cerevisiae (strain ATCC 204508 / S288c), reversible: yes
[1] = pH 4.6, 27 °C, Thermal, DSC, Potassium acetate 50 mM, structure 1YCC
[2] = pH 4.6, Thermal, DSC, Potassium acetate 50 mM, structure 1YCC
[3] = pH 7, 22 °C, GdnHCl, Fluorescence, Potassium phosphate 0.1 M, structure 1YCC
[4] = pH 3.5, 27 °C, Thermal, DSC, Potassium acetate 50 mM, structure 1YCC
[5] = pH 3.5, Thermal, DSC, Potassium acetate 50 mM, structure 1YCC
[6] = pH 4, 27 °C, Thermal, DSC, Potassium acetate 50 mM, structure 1YCC
[7] = pH 5, 27 °C, Thermal, DSC, Potassium acetate 50 mM, structure 1YCC
[8] = pH 5, Thermal, DSC, Potassium acetate 50 mM, structure 1YCC
[9] = pH 4, Thermal, DSC, Potassium acetate 50 mM, structure 1YCC
[10] = pH 3.5, Thermal, DSC, Potassium acetate 50 mM
[11] = pH 4, Thermal, DSC, Potassium acetate 50 mM
[12] = pH 4.6, Thermal, DSC, Potassium acetate 50 mM
[13] = pH 5, Thermal, DSC, Potassium acetate 50 mM
[14] = pH 7, 22 °C, GdnHCl, Fluorescence, Potassium phosphate 0.1 M

Cytochrome c isoform 1 N58A, P00044, sequence (P00044 whole entry N58A, canonical isoform): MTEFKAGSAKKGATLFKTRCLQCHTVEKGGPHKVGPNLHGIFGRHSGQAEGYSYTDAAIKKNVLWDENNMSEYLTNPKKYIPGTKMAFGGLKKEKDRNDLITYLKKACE
Cytochrome c isoform 1 N58H, P00044, sequence (P00044 whole entry N58H, canonical isoform): as the sequence (P00044 whole entry N58A, canonical isoform) above, with A58H counted along it
Cytochrome c isoform 1 N58T, P00044, sequence (P00044 whole entry N58T, canonical isoform): as the sequence (P00044 whole entry N58A, canonical isoform) above, with A58T counted along it
Cytochrome c isoform 1 N58M, P00044, sequence (P00044 whole entry N58M, canonical isoform): as the sequence (P00044 whole entry N58A, canonical isoform) above, with A58M counted along it
Cytochrome c isoform 1 N58V, P00044, sequence (P00044 whole entry N58V, canonical isoform): as the sequence (P00044 whole entry N58A, canonical isoform) above, with A58V counted along it
Cytochrome c isoform 1 N58I, P00044, sequence (P00044 whole entry N58I, canonical isoform): as the sequence (P00044 whole entry N58A, canonical isoform) above, with A58I counted along it
Cytochrome c isoform 1 N58S, P00044, sequence (P00044 whole entry N58S, canonical isoform): as the sequence (P00044 whole entry N58A, canonical isoform) above, with A58S counted along it
Cytochrome c isoform 1 N58Q, P00044, sequence (P00044 whole entry N58Q, canonical isoform): as the sequence (P00044 whole entry N58A, canonical isoform) above, with A58Q counted along it
Cytochrome c isoform 1 wild type, P00044, sequence (P00044 whole entry, canonical isoform): as the sequence (P00044 whole entry N58A, canonical isoform) above, with A58N counted along it

Substance | ddG of mutation (higher = less stable) [1] | unfolding free energy [1] | Tm [2] | change of melting temperature, mutant - wild type (higher = more stable) [2] | unfolding enthalpy (calorimetric) [2] | ddG of mutation (higher = less stable) [3] | denaturant midpoint (higher = more stable) [3] | unfolding free energy [3] | ddG of mutation (higher = less stable) [6] | unfolding free energy [6] | ddG of mutation (higher = less stable) [7] | unfolding free energy [7] | Tm [8] | change of melting temperature, mutant - wild type (higher = more stable) [8] | unfolding enthalpy (calorimetric) [8] | Tm [9] | change of melting temperature, mutant - wild type (higher = more stable) [9] | unfolding enthalpy (calorimetric) [9] | further results
Cytochrome c isoform 1 N58A, P00044 | -0.63 kcal/mol | 4.66 kcal/mol | 53.7 °C | 4.5 °C | 84 kcal/mol | -2.97 kcal/mol | 1.52 M | 8.83 kcal/mol | – | – | – | – | – | – | – | – | – | – | –
Cytochrome c isoform 1 N58H, P00044 | 1.27 kcal/mol | 2.76 kcal/mol | 47.5 °C | -1.7 °C | 64.1 kcal/mol | 1.7 kcal/mol | 1.41 M | 4.16 kcal/mol | – | – | – | – | – | – | – | – | – | – | –
Cytochrome c isoform 1 N58I, P00044 | – | – | 62.2 °C | 13 °C | 101 kcal/mol | -4.1 kcal/mol | 2.09 M | 9.96 kcal/mol | -3.03 kcal/mol | 5.55 kcal/mol | -2.02 kcal/mol | 7.64 kcal/mol | 64.2 °C | 0.9 °C | 108 kcal/mol | – | – | – | ddG of mutation (higher = less stable) [4]: -2.62 kcal/mol; unfolding free energy [4]: 4.26 kcal/mol; Tm [5]: 52.4 °C; change of melting temperature, mutant - wild type (higher = more stable) [5]: 12.3 °C; unfolding enthalpy (calorimetric) [5]: 80.7 kcal/mol
Cytochrome c isoform 1 N58L, P00044 | -2.56 kcal/mol | 6.59 kcal/mol | 62.1 °C | 12.9 °C | 97.4 kcal/mol | -4.73 kcal/mol | 2.17 M | 10.6 kcal/mol | – | – | – | – | – | – | – | – | – | – | –
Cytochrome c isoform 1 N58M, P00044 | -2.25 kcal/mol | 6.28 kcal/mol | 62.6 °C | 13.4 °C | 96 kcal/mol | -4.04 kcal/mol | 2.14 M | 9.9 kcal/mol | -2.91 kcal/mol | 5.43 kcal/mol | – | – | – | – | – | 58.9 °C | 13.5 °C | 89 kcal/mol | –
Cytochrome c isoform 1 N58Q, P00044 | – | 3.95 kcal/mol | 51.2 °C | 2 °C | 78.7 kcal/mol | – | 1.39 M | 5.02 kcal/mol | – | – | – | – | – | – | – | – | – | – | –
Cytochrome c isoform 1 N58S, P00044 | 0.05 kcal/mol | 3.98 kcal/mol | 51 °C | 1.8 °C | 78.7 kcal/mol | – | – | – | -0.74 kcal/mol | 3.26 kcal/mol | 1.29 kcal/mol | 4.33 kcal/mol | 52.6 °C | -10.7 °C | 83.2 kcal/mol | 46.7 °C | 1.3 °C | 70.8 kcal/mol | –
Cytochrome c isoform 1 N58T, P00044 | -0.59 kcal/mol | 4.62 kcal/mol | 54.5 °C | 5.3 °C | 82.9 kcal/mol | -1.9 kcal/mol | 1.58 M | 7.76 kcal/mol | -1.01 kcal/mol | 3.53 kcal/mol | 0.53 kcal/mol | 5.09 kcal/mol | 55.3 °C | -8 °C | 88.6 kcal/mol | 49.2 °C | 3.8 °C | 75.3 kcal/mol | ddG of mutation (higher = less stable) [4]: -0.98 kcal/mol; unfolding free energy [4]: 2.62 kcal/mol; Tm [5]: 45.4 °C; change of melting temperature, mutant - wild type (higher = more stable) [5]: 5.3 °C; unfolding enthalpy (calorimetric) [5]: 63.4 kcal/mol
Cytochrome c isoform 1 N58V, P00044 | -1.67 kcal/mol | 5.7 kcal/mol | 58 °C | 8.8 °C | 92.4 kcal/mol | -2.02 kcal/mol | 1.77 M | 7.88 kcal/mol | -2.44 kcal/mol | 4.96 kcal/mol | – | – | – | – | – | 54.3 °C | 8.9 °C | 86.5 kcal/mol | –
Cytochrome c isoform 1 wild type, P00044 | – | – | – | – | – | – | – | – | – | – | – | – | – | – | – | – | – | – | unfolding free energy (pH 3.5, 27 °C, Thermal, DSC, Potassium acetate 50 mM): 1.64 kcal/mol; Tm [10]: 40.1 °C; unfolding enthalpy (calorimetric) [10]: 55.3 kcal/mol; unfolding free energy (pH 4, 27 °C, Thermal, DSC, Potassium acetate 50 mM): 2.52 kcal/mol; Tm [11]: 45.4 °C; unfolding enthalpy (calorimetric) [11]: 64.2 kcal/mol; unfolding free energy (pH 4.6, 27 °C, Thermal, DSC, Potassium acetate 50 mM): 4.03 kcal/mol; Tm [12]: 49.2 °C; unfolding enthalpy (calorimetric) [12]: 78.8 kcal/mol; unfolding free energy (pH 5, 27 °C, Thermal, DSC, Potassium acetate 50 mM): 5.62 kcal/mol; Tm [13]: 63.3 °C; unfolding enthalpy (calorimetric) [13]: 107 kcal/mol; denaturant midpoint (higher = more stable) [14]: 1.34 M; unfolding free energy [14]: 5.86 kcal/mol
